One may read the stoichiometry N as a count of units in the complex or per binding partner.

For 1 substance, stoichiometry N results are on record in publication PMC10844685.

For the experiment, the target named is pyruvate kinase isoform M2 (PKM2) (human (endogenous in MDA-MB-231 and Hs578T)) (UniProt P14618). In words: native gel or EMSA; total protein of MDA-MB-231 and Hs578T cells, not heat-denatured, non-denaturing loading buffer, native PAGE running buffer, western blot with anti-PKM2; cells with miR-29c-3p inhibitor, with or without TRIM9 knockdown. In general terms: In EMSA bound probe runs differently from free probe, usually more slowly.

pyruvate kinase isoform M2 (PKM2), P14618 1-531 (enzyme; other documents disagree on this pair), sequence (P14618 whole entry, canonical isoform): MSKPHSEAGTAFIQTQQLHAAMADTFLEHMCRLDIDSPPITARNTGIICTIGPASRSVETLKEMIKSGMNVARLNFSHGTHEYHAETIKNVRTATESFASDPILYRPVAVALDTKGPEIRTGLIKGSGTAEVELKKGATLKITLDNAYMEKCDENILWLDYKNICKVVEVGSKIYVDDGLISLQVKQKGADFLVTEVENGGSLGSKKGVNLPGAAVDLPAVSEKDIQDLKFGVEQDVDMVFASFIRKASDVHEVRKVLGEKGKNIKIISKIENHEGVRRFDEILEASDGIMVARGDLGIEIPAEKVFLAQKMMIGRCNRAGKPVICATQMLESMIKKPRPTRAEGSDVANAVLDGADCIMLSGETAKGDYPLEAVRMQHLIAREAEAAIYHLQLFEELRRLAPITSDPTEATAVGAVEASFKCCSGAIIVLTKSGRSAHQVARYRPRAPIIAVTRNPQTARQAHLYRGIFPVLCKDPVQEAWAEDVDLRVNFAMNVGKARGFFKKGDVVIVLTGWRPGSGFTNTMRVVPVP

For the substance “pyruvate kinase isoform M2 (PKM2), P14618 1-531 (enzyme; other documents disagree on this pair)”, the stoichiometry N is 2.
